Laboratory results as given in patent US20200197483A1 (MOREHOUSE SCHOOL OF MEDICINE, published 2020).

Key:
Mortalin = target: T1, Mortalin (UniProt P38646 47-679); assay: immunoprecipitation from Jurkat lysate, Western blot with anti-mortalin antibody
T1 construct: Endogenous protein pulled down from Jurkat cell lysate (a human T cell line); also called Glucose-regulated protein 75 (GRP75)

E. coli DnaK protein = target: T2, E. coli DnaK protein (Escherichia coli, UniProt P0A6Y8 2-638); assay: ANTI-FLAG M2 immunoprecipitation from E. coli lysate, Western blot with anti-DnaK antibody
T2 construct: Endogenous protein in E. coli lysate; also called heat shock protein 70 (Hsp70)
T2 sequence (P0A6Y8 2-638 limits assumed): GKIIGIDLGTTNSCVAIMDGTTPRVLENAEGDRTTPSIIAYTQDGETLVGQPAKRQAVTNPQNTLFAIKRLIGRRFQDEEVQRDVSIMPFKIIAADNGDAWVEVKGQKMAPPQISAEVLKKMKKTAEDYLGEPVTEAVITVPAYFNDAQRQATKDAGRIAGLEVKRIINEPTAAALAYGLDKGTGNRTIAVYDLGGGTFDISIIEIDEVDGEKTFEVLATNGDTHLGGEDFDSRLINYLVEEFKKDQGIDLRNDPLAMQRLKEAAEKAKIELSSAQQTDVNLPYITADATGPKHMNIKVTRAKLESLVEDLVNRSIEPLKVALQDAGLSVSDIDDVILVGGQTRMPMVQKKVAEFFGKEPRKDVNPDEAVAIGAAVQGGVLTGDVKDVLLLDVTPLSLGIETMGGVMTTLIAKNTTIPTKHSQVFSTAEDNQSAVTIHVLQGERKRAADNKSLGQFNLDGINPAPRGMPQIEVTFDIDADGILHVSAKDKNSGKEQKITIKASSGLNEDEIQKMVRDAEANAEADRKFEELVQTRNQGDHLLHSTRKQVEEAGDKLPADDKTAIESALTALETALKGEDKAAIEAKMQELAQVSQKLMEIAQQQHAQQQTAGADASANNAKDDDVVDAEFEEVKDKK

T1 sequence (P38646 47-679 limits assumed): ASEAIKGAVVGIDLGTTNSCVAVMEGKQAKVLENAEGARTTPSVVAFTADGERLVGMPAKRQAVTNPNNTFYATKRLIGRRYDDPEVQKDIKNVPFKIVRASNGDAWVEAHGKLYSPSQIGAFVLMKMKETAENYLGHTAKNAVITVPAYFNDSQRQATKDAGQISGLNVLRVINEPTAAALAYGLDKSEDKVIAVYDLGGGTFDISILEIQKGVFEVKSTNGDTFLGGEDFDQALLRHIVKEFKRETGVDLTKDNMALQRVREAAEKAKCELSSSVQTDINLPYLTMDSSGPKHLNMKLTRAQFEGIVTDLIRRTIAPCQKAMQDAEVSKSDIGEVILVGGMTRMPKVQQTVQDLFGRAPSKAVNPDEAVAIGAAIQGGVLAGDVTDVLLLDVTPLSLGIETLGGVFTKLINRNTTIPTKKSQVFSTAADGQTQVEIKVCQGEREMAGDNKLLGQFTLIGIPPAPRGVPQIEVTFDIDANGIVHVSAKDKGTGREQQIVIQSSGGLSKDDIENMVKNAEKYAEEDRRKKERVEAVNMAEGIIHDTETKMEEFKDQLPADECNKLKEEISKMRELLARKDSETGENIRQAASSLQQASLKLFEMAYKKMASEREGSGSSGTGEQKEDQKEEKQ

B1: HIV-1 Nef SMRwt peptide (peptide)
peptide: VGFPVAAVGFPVDYKDDDDK
notes: Synthetic peptide with two SMR motifs and a C-terminal FLAG tag; also called SMRwt (wide-type) peptide; antagonist peptide
- binding result (Mortalin): binds
- binding result (E. coli DnaK protein): binds

B2: HIV-1 Nef SMRmut peptide (peptide)
peptide: AGFPVAAAGFPVDYKDDDDK
notes: Synthetic negative control peptide; the first valine of each VGFPV motif is changed to alanine; also called SMRmut (mutant) peptide; negative control peptide
- binding result (Mortalin): no binding
- binding result (E. coli DnaK protein): no binding (tested: 1 µg peptide with 1 mg E. coli lysate)
